# Results as given in publication PMC4993509 (PLoS ONE, 2016).
# B1: C-terminal histidine-tagged SYCP1 CC (coiled-coil domain of human synaptonemal complex protein 1, residues 662-801) (domain or fragment, UniProt Q15431 662-801, looked up)
# chain: DTYQKEIEDKKISEENLLEEVEKAKVIADEAVKLQKEIDKRCQHKIAEMVALMEKHKHQYDKIIEERDSELGLYKSKEQEQSSLRASLEIELSNLKAELLSVKKQLEIEREEKEKLKREAKENTATLKEKKDKKTQTFLL
# notes: synaptonemal complex protein 1 (SYCP1), human, coiled-coil domain region, residues 662 (D)-801 (L); A selenomethionine-substituted form was also made and crystallised; the final model holds residues 673-767 (chain A) and 673-769 (chain B); also called SYCP CC; wildtype; source: E. coli BL21 (pET24a), purified (Ni-NTA, Superdex 200 gel filtration); not shown: His tag, C-terminal, kept
# Biological target: the molecule itself
# Test: SEC-MALS; Superdex 200 HR 10/30 coupled to three-angle light scattering (mini-DAWN EOS) and refractive index detector, flow 0.2 ml/min
protein,measurement,value
B1,stoichiometry N,2
